Assays:
[1] = target: HER2 on SK-BR-3 human breast cancer cells (human) (UniProt P04626); test: flow cytometry on SK-BR-3 cells, human IgG1, anti-human IgG-FITC detection
[2] = target: Biotinylated HER2 extracellular domain (human) (UniProt P04626); test: SPR (BIAcore), biotinylated HER2 ECD on streptavidin chip, scFv injected, 1:1 Langmuir fit

| EC50 [1] [µg/mL] | Kd [2] [nM] | koff [2] [s⁻¹] | kon [2] [M⁻¹ s⁻¹] | Substance |
| --- | --- | --- | --- | --- |
| 0.925 | – | – | – | 4D5 as human IgG1, VL 52D (WT/52D) (antibody) |
| – | 7.6 | 0.00091 | 120000 | 4D5-b (4D5 scFv, VL 52D) |

— US20170240619A1
